In data set [1] the target is TR4 coexpressed with dnTR4 dnTR4 chain: three Lys/Arg to Glu in DNA binding domain (Mus musculus) (UniProt P49117+P49117). Nature of the data set: EMSA. Particulars: TR4 binding diminished by about 80% (TR4 alone = 100%).
Data set [2] addresses TR4 coexpressed with dnTR2 dnTR2 chain: three Lys/Arg to Glu in DNA binding domain (Mus musculus) (UniProt P49117+Q505F1). Nature of the data set: EMSA. Particulars: TR4 binding diminished by about 80% (TR4 alone = 100%).
Data set [3] concerns the target T1, DRED complex (TR2/TR4 heterodimer DNA-binding core) (Mus musculus, UniProt Q505F1;P49117 Q505F1:1-590,P49117:1-596).
T1 sequence 1: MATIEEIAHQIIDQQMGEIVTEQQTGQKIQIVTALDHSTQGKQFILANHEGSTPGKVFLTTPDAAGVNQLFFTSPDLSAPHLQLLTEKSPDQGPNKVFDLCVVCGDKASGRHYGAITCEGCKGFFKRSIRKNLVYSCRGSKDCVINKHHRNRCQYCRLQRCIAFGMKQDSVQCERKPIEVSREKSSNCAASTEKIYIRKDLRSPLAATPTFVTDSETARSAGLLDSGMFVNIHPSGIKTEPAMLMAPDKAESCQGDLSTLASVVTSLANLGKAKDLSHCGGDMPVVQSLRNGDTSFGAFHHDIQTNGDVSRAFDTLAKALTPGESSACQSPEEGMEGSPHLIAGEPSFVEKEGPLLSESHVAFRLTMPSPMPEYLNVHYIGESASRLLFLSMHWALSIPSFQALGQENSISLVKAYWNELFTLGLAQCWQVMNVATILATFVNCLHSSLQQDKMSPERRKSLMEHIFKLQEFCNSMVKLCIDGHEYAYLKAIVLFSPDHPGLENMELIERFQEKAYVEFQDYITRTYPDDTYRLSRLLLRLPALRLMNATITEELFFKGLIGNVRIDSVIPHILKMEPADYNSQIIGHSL
T1 sequence 2: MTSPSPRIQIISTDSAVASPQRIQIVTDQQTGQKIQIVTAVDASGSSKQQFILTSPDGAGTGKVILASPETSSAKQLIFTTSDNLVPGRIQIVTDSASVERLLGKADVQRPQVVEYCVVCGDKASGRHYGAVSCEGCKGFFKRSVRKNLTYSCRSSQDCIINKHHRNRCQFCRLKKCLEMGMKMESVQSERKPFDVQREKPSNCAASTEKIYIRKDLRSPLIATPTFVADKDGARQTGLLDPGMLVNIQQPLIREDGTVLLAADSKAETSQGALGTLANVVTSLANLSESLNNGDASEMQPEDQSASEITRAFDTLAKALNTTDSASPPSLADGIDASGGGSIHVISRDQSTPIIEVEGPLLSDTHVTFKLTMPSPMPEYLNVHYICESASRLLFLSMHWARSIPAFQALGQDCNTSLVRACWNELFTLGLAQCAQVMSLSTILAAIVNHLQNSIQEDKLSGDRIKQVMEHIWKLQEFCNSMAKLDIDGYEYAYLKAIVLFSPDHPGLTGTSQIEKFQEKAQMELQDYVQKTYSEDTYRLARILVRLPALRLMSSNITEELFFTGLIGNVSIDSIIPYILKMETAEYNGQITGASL
The data set can be described thus: competition; EMSA competition vs 1.1 nM 32P epsilon distal DR probe; judged too low for functional association. Particulars: protein: extract; tags: native, MEL mouse erythroleukemia cell nuclear extract; blunt ended. The protocol: (§1) Electrophoretic Gel Mobility Shift Assay (EMSA). Nuclear extracts preparation, binding reactions, and electrophoresis were performed as described previously (Tanimoto et al., 2000). The following blunt ended oligonucleotides were used as probes or competitors in EMSA (only sense strands are shown): ε distal DR, 5′-[…]-3′ (SEQ ID NO: 19); ε proximal DR, 5′-[…]-3′ (SEQ ID NO: 20); γ DR, 5′-[…]-3′ (SEQ ID NO: 21); β, 5′-[…]-3′ (SEQ ID NO: 22); εy distal DR, 5′-[…]-3′ (SEQ ID NO: 23); εy proximal DR, 5′-[…]-3′ (SEQ ID NO: 24); βh1 DR, 5′-[…]-3′ (SEQ ID NO: 25); β^major, 5′-[…]-3′ (SEQ ID NO: 26).
(§2) Free and bound ³²P-labeled probe was quantified on a PhosphoImager. The competitive binding experiments were then performed using 1.1 nM ³²P-labeled ε distal DR probe and 70 pM to 2 μM of each competitor double-strand oligonucleotide to determine the 50% inhibitory concentration (IC₅₀). The equilibrium dissociation constant (Ki) for each competitor was then determined by the following equation (Cheng and Prusoff, 1973): […]

Data set [4] addresses T1, DRED complex (TR2/TR4 heterodimer …). Nature of the data set: competition; EMSA competition vs 1.1 nM 32P epsilon distal DR probe. Particulars: protein: extract; tags: native, MEL mouse erythroleukemia cell nuclear extract; blunt ended. The protocol:
as §1, §2

For data set [5] the target is unchanged. The data set can be described thus: competition; EMSA competition vs 1.1 nM 32P epsilon distal DR probe; unlabeled competitor. The note with it: protein: extract; tags: native, MEL mouse erythroleukemia cell nuclear extract; label: 32P (probe); blunt ended. The protocol:
as §1, §2

The target is the same in data set [6]. Nature of the data set: EMSA; saturation binding, MEL nuclear extract. Particulars: protein: extract; tags: native, MEL mouse erythroleukemia cell nuclear extract; label: 32P (probe); blunt ended. The method, then:
as §1, §2

In data set [7] the target is T2, mouse TR4 orphan nuclear receptor, Flag-tagged at the amino terminus, wild type (mouse, UniProt P49117 1-596).
T2 construct: also called wild type TR4; not shown: Flag tag at the amino terminus
T2 sequence (looked up): T1 sequence 2
The data set can be described thus: EMSA of nuclear extracts of co-transfected 293T cells on the ε distal DR probe; heterodimer inferred. The protocol: 20 μg of expression plasmid was mixed with 40 μl of lipofectamine 2000 (Invitrogen) and then added to each dish according to the manufacturer's instruction. Forty-eight hours after transfection, cells were harvested and nuclear extracts were prepared.
as §1
After transfection, nuclear extracts were prepared and examined for binding to the ε distal-DR element by EMSA (FIG. 1C). […] When TR2 and TR4 were coexpressed to generate TR2/TR4 heterodimers (Tanabe et al., 2002), generated an even more intense signal.

The values below come from patent US20080008651A1, “Screening Methods and Transgenic Animals for the Treatment of Beta-Globin Related Disease and Conditions” (THE REGENTS OF THE UNIVERSITY OF MICHIGAN, published 2008).

In the case of “CCCTGAGGACACAGGTCAGCCTTG (double strand) [epsilon distal DR]”, the binding signal in data set [1] and in data set [2] was 20% in each case.

B1: beta (dsDNA)
DNA 1: TAGGGTTGGCCAATCTACTCCC
DNA 2: GGGAGTAGATTGGCCAACCCTA
In turn, B1 came in with an inhibition constant Ki in data set [3] of 420 nM.

B2: gamma DR (dsDNA)
DNA 1: GCCTTGCCTTGACCAATAGCCTTGACAA
DNA 2: TTGTCAAGGCTATTGGTCAAGGCAAGGC
In the case of B2, the affinity in data set [4] corresponds to a Ki of 13 nM.

B3: epsilon-y distal DR (dsDNA)
DNA 1: CCATGAGGACCACGGGTCAGGCTGA
DNA 2: TCAGCCTGACCCGTGGTCCTCATGG
For the molecule B3, affinity in data set [4] was put at a Ki of 4.1 nM. This Ki is about 3.2-fold lower than that of the molecule before.

B4: epsilon distal DR (dsDNA)
DNA 1: CCCTGAGGACACAGGTCAGCCTTG
DNA 2: CAAGGCTGACCTGTGTCCTCAGGG
The molecule B4 displayed an inhibition constant Ki in data set [5] of 0.97 nM. Further, in data set [6], the Kd stood at 0.56 nM.

B5: beta-major (dsDNA)
DNA 1: TGGTAAGGGCCAATCTGCTCACA
DNA 2: TGTGAGCAGATTGGCCCTTACCA
In data set [3], B5 gave a Ki of 170 nM.

B6: beta-h1 DR (dsDNA)
DNA 1: CCCAGACTCTCTTGACCAATAGCCTCAGAGTCCT
DNA 2: AGGACTCTGAGGCTATTGGTCAAGAGAGTCTGGG
As for B6, in data set [4], the inhibition constant (Ki) was found to be 18 nM.

B7: epsilon-y proximal DR (dsDNA)
DNA 1: TCAGGCTGACCAATGGCTTCAAA
DNA 2: TTTGAAGCCATTGGTCAGCCTGA
Turning to B7, in data set [3], the affinity corresponds to a Ki of 59 nM.

B8: epsilon proximal DR (dsDNA)
DNA 1: CAGCCTTGACCAATGACTTTTA
DNA 2: TAAAAGTCATTGGTCAAGGCTG
In data set [4], B8 registered an inhibition constant (Ki) of 2.8 nM.

B9: mouse TR2 orphan nuclear receptor, Flag-tagged at the amino terminus, wild type (receptor, UniProt Q505F1 1-590, looked up)
chain: T1 sequence 1
notes: also called wild type TR2; not shown: Flag tag at the amino terminus
On to B9, for which the binding result in data set [7] is reported as “binds”.
